Substitutions are numbered along the chain they refer to. Numbers in names are those of the source.
How the values were obtained:
[1] = molecular target: T1, hu-M-IL1RAP construct, positions S21-T367 (extracellular domain of the membrane form of human IL1RAP) (human, UniProt Q9NPH3 21-367); assay: SPR, 37 C
T1 construct: Biotinylated when captured on the Biacore chip
T1 sequence: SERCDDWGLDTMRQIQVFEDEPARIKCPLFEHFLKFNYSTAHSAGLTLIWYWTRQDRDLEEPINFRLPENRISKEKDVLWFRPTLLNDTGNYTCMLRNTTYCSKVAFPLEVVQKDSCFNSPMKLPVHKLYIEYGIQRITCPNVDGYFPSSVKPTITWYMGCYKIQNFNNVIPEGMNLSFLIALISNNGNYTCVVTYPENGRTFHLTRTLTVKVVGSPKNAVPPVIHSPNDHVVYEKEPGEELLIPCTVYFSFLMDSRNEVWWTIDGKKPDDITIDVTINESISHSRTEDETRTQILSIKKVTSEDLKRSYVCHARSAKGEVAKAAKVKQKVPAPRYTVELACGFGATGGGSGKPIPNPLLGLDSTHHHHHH

[2] = molecular target: T2, cyno-M-IL1RAP construct, positions S21-T367 (cynomolgus monkey, UniProt P59822 21-367 (rhesus entry)); assay: SPR, 37 C
T2 construct: Biotinylated when captured on the Biacore chip; also called cy-M-IL1RAP
T2 sequence: T1 sequence with L183F, T273P, K326T

[3] = molecular target: T3, human IL1RAP (hu-IL1RAP) on human cells (human, UniProt Q9NPH3 21-570); assay: cell-based or functional assay
T3 sequence: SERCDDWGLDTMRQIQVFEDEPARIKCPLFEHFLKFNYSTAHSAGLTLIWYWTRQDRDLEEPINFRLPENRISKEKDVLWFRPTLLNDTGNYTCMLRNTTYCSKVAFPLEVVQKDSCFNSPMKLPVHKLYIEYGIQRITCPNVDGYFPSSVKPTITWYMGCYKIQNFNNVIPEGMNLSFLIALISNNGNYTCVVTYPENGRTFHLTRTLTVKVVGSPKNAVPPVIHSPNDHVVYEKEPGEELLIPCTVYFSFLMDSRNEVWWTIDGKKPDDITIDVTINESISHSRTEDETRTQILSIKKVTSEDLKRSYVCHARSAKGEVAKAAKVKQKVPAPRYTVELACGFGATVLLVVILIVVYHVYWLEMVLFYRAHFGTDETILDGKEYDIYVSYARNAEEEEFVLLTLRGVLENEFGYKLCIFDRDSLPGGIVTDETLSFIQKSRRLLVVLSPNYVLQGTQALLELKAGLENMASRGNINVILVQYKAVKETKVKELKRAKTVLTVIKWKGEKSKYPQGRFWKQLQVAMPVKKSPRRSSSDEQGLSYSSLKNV

[4] = molecular target: T3, human IL1RAP (hu-IL1RAP) on human cells; assay: cell-based or functional assay; remark: listed apart in the source
[5] = molecular target: T1, hu-M-IL1RAP construct, positions …; assay: SPR, IgG analyte (apparent), 37 C, pH 6
[6] = molecular target: T2, cyno-M-IL1RAP construct, positions …; assay: SPR, IgG analyte (apparent), 37 C, pH 6
[7] = molecular target: T1, hu-M-IL1RAP construct, positions …; assay: SPR, IgG analyte (apparent), 37 C, pH 7.4
[8] = molecular target: T2, cyno-M-IL1RAP construct, positions …; assay: SPR, IgG analyte (apparent), 37 C, pH 7.4
[9] = molecular target: T1, hu-M-IL1RAP construct, positions …; assay: SPR, IgG analyte (apparent), pH 7.4, 37 C
[10] = molecular target: T2, cyno-M-IL1RAP construct, positions …; assay: SPR, IgG analyte (apparent), pH 7.4, 37 C
[11] = molecular target: T4, biotinylated human FcRn (Acro biosystems, catalogue number FCN-H52W7) (human, UniProt P55899 24-297; P61769 21-119, biotinylated); assay: SPR steady state, FcRn captured, 25 C, pH 6.0; pH 6.0
T4 construct: Bought reagent; also called hu-FcRn

[12] = molecular target: T5, biotinylated cyno FcRn (Acro biosystems, catalogue number FCM-C5284) (cynomolgus monkey, UniProt Q8SPV9 24-297; Q8SPW0 21-119, limits assumed, biotinylated); assay: as above
T5 construct: Bought reagent

KD (6)/KD (7.4) [1]: 10 ratio
KD (7.4) ratio to YIS [1]: 0.86 ratio
koff (6) ratio to YIS [1]: 3.8 ratio
KD (6)/KD (7.4) [2]: 4.8 ratio
KD (7.4) ratio to YIS [2]: 2.4 ratio
koff (6) ratio to YIS [2]: 4.7 ratio
HEK-Blue, IL-1β, IC50 [3]: 510 pM
HEK-Blue, IL-33, % inhibition at 100 nM [3]: 95%
HEK-Blue, IL-33, IC50 [3]: 3150 pM
HEK-Blue, IL-36β, IC50 [3]: 900 pM
HEKn, IL-36β stimulated IL-8, IC50 [3]: 1390 pM
NK cells, IL-33+IL-12 stimulated IFN-γ, IC50 [3]: 2930 pM
PHLF, IL-1α stimulated IL-8, IC50 [3]: 9100 pM
PHLF, IL-36β stimulated IL-8, IC50 [3]: 390 pM
monocytes, IL-1β stimulated IL-6, IC50 [3]: 63 pM
HEK-Blue, IL-1β, % inhibition at 100 nM (IgG) [4]: 100%
HEK-Blue, IL-1β, IC50 (IgG) [4]: 513 pM
HEK-Blue, IL-33, % inhibition at 100 nM (IgG) [4]: 100%
HEK-Blue, IL-33, IC50 (IgG) [4]: 2080 pM
HEK-Blue, IL-36α, % inhibition at 100 nM (IgG) [4]: 100%
HEK-Blue, IL-36α, IC50 (IgG) [4]: 622 pM
Kd [5]: 188 pM
koff [5]: 0.00056 s⁻¹
kon [5]: 2.98e+06 M⁻¹ s⁻¹
Kd [6]: 164 pM
koff [6]: 0.000324 s⁻¹
kon [6]: 1.98e+06 M⁻¹ s⁻¹
Kd [7]: 18.5 pM
koff [7]: 3.51e-05 s⁻¹
kon [7]: 1.9e+06 M⁻¹ s⁻¹
Kd [8]: 33.9 pM
koff [8]: 6.8e-05 s⁻¹
kon [8]: 2e+06 M⁻¹ s⁻¹
Kd [9]: 30.4 pM
koff [9]: 6.15e-05 s⁻¹
kon [9]: 2.03e+06 M⁻¹ s⁻¹
Kd [10]: 22.3 pM
koff [10]: 5.39e-05 s⁻¹
kon [10]: 2.41e+06 M⁻¹ s⁻¹
Kd [11]: 558000 pM
Kd [12]: 45600 pM
B1: h11C5 variant K17/H2 IgG (YKD) (antibody)
heavy: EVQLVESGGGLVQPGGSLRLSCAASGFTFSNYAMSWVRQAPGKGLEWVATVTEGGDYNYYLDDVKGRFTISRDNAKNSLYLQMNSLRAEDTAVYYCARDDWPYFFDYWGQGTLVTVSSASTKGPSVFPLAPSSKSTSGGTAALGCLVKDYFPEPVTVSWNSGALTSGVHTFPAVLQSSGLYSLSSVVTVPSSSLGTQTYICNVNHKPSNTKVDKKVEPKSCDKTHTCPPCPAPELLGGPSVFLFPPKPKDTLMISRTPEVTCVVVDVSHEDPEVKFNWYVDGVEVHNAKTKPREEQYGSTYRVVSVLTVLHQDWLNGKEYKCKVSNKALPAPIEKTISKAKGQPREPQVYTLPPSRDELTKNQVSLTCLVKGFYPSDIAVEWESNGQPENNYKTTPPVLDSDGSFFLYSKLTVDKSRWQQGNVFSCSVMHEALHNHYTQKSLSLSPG
light: DIQMTQSPSSLSASVGDRVTITCRASENIYSNLAWYQQKPGKSPKLLVYGYKNLADGVPSRFSGSGSGTDYTLTISSLQPEDFATYYCQHFKTTPRTFGGGTKVEIKRTVAAPSVFIFPPSDEQLKSGTASVVCLLNNFYPREAKVQWKVDNALQSGNSQESVTEQDSKDSTYSLSSTLTLSKADYEKHKVYACEVTHQGLSSPVTKSFNRGEC
notes: Human IgG1 N297G; also called 11C5-YKD

Source: patent publication US20260015426A1 (23ANDME, published 2026)
